In publication PMC9482650, “Quantitative fragmentomics allow affinity mapping of interactomes” (Nature Communications, 2022) one finds pKd data, which are given here for four molecules.

What is called pKd is the negative decadic logarithm of the Kd, by convention in mol/L.

Positions count from the first letter of the chain named.

Among the targets are DLG4_2, P78352; FRMPD2_1, Q68DX3; IL16_1, Q14005; Inadl_3, Q8NI35; LAP2, Q96RT1; LIMK2, P53671; LNX1_3, Q8TBB1; NHERF4_2, Q86UT5; NHERF4_4, Q86UT5.
What all share (assay): holdup assay
Common to all, as to parameters: key: below the threshold = too weak to quantify, mostly under pKd 3.1 to 4

A further experiment deals with T1, APBA1_2, Q02410.
T1 sequence (Q02410 742-832, limits assumed, looked up): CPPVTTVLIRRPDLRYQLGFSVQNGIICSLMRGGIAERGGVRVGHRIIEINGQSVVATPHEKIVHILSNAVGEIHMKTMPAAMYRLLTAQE

The next experiment deals with T2, APBA2_2, Q99767.
T2 sequence (Q99767 654-744, limits assumed, looked up): T1 sequence (Q02410 742-832, limits assumed, looked up) with R10K, R15K, P59A, H65Q, I66A, A70S, Y84F, A89G

The target of a further experiment is T3, CARD11, Q9BXL7.
T3 sequence (Q9BXL7 662-765, limits assumed, looked up): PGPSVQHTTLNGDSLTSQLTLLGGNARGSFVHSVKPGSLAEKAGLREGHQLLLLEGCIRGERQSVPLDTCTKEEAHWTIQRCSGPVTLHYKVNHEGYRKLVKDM

The target in a further experiment is T4, DFNB31_2, Q9P202.
T4 sequence (Q9P202 274-371, limits assumed, looked up): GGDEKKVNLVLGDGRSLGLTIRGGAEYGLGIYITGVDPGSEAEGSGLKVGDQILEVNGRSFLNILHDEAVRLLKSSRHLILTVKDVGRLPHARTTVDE

For another experiment, the target named is T5, FRMPD1, Q5SYB0.
T5 sequence (Q5SYB0 52-145, limits assumed, looked up): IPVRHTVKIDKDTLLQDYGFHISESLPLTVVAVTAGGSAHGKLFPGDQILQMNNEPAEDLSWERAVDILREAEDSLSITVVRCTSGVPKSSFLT

The next experiment addresses T6, LNX2_3, Q8N448.
T6 sequence (Q8N448 463-564, limits assumed, looked up): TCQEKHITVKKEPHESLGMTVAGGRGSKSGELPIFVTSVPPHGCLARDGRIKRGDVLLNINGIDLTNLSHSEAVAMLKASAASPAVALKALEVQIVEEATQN

Another experiment has as its target T7, MPDZ_10, O75970.
T7 sequence (O75970 1624-1722, limits assumed, looked up): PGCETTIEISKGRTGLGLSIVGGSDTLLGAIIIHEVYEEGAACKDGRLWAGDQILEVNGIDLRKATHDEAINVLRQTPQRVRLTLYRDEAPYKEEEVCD

The next experiment addresses T8, MPP6, Q9NZW5.
T8 sequence (Q9NZW5 125-219, limits assumed, looked up): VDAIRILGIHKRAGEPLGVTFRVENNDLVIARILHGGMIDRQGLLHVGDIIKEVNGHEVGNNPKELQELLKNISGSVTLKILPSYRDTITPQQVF

Another experiment deals with T9, MPP7, Q5T2T1.
T9 sequence (Q5T2T1 134-230, limits assumed, looked up): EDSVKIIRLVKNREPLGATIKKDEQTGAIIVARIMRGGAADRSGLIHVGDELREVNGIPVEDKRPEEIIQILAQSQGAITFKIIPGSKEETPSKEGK

The next experiment has as its target T10, NHERF3_3, Q5T2W1.
T10 sequence (Q5T2W1 238-333, limits assumed, looked up): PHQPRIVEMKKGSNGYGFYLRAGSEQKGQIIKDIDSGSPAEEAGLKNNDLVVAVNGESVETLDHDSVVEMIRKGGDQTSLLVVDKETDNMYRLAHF

Another experiment has as its target T11, NHERF3_4, Q5T2W1.
T11 sequence (Q5T2W1 373-468, limits assumed, looked up): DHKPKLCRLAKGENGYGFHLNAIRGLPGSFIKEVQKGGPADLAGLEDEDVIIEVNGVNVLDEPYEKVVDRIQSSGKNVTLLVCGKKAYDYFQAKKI

A further experiment concerns the target T12, PDZD2_2, O15018.
T12 sequence (O15018 329-429, limits assumed, looked up): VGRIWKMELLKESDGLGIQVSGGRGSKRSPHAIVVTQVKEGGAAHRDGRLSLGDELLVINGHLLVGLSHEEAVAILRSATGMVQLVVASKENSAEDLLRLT

The target in another experiment is T13, SHANK1, Q9Y566.
T13 sequence (Q9Y566 658-767, limits assumed, looked up): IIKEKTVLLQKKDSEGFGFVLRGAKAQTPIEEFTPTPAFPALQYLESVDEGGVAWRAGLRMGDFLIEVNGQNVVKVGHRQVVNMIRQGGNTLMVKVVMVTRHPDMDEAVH

The next experiment deals with T14, TX1BP3, O14907.
T14 sequence (O14907 10-122, limits assumed, looked up): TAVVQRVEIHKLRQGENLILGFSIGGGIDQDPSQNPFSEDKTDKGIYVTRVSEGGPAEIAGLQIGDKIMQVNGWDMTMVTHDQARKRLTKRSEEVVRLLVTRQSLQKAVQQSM

The mark [1] stands for this setting: plain residues with an end cap or a label only (N-terminal biotin on a linker: ttds).
[2] abbreviates: plain residues with an end cap or a label only (N-terminal biotin on a linker: ado-ado).
Where [3] appears, read: plain residues with an end cap or a label only (N-terminal biotin on a linker: ahx).

LNX1_3, Q8TBB1, sequence (Q8TBB1 500-596): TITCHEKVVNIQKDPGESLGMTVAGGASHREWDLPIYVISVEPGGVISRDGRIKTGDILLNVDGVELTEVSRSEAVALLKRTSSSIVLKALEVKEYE
LAP2, Q96RT1, sequence (Q96RT1 other isoform, or with tags, fused parts or gaps): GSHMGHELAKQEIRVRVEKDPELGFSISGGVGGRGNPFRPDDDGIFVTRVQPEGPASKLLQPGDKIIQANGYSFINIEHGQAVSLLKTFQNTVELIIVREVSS
IL16_1, Q14005, sequence (Q14005 210-306): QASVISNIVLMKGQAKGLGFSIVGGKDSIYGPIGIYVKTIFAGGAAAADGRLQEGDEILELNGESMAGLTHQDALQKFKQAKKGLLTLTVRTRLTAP
DLG4_2, P78352, sequence (P78352 155-259): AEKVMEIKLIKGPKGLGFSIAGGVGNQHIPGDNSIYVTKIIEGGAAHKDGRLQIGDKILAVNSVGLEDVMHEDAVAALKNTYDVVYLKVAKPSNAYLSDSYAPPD
LIMK2, P53671, sequence (P53671 143-248): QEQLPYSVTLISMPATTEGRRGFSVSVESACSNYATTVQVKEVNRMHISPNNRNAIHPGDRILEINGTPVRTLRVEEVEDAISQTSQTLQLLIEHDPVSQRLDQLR
FRMPD2_1, Q68DX3, sequence (Q68DX3 770-861): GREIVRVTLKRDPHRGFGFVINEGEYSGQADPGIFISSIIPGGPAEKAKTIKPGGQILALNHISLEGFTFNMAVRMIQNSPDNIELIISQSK
Inadl_3, Q8NI35, sequence (Q8NI35 359-469): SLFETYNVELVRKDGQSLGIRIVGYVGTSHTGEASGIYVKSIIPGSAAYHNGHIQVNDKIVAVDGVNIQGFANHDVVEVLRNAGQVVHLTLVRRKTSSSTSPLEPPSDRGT
NHERF4_4, Q86UT5, sequence (Q86UT5 464-550): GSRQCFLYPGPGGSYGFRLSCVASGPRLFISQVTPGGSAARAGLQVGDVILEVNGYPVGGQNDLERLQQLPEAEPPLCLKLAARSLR
NHERF4_2, Q86UT5, sequence (Q86UT5 220-308): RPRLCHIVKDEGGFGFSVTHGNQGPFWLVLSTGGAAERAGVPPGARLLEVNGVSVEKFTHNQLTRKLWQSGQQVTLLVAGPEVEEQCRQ

As to QFQYAKESYI [TAGAP, Q8N103], the negative-log Kd (pKd) with APBA1_2, Q02410 (setting [1]) was 3.8; with APBA2_2, Q99767 (setting [1]) it was “below the threshold”; with CARD11, Q9BXL7 (setting [1]), “below the threshold”; with DFNB31_2, Q9P202 (setting [1]) it was 4.74; with DLG4_2, P78352 (setting [1]), 4.41; with FRMPD1, Q5SYB0 (setting [1]) it was “below the threshold”. Moreover, the pKd entry in the experiment with FRMPD2_1, Q68DX3 (setting [1]) is “below the threshold”; in the experiment with IL16_1, Q14005 (setting [1]) it was 4.65; in the experiment with Inadl_3, Q8NI35 (setting [1]), “below the threshold”; in the experiment with LAP2, Q96RT1 (setting [1]), 3.48; with LIMK2, P53671 (setting [1]) it was “below the threshold”; with LNX1_3, Q8TBB1 (setting [1]) it was “below the threshold”. Moreover, the negative-log Kd (pKd) entry with LNX2_3, Q8N448 (setting [1]) is listed as “below the threshold”; in the experiment with MPDZ_10, O75970 (setting [1]), “below the threshold”; with MPP6, Q9NZW5 (setting [1]), “below the threshold”; with MPP7, Q5T2T1 (setting [1]) it was “below the threshold”; with NHERF3_3, Q5T2W1 (setting [1]) it was “below the threshold”; in the experiment with NHERF3_4, Q5T2W1 (setting [1]), “below the threshold”. For the same molecule, the pKd result with NHERF4_2, Q86UT5 (setting [1]) is “below the threshold”; with NHERF4_4, Q86UT5 (setting [1]), “below the threshold”; with PDZD2_2, O15018 (setting [1]) it was 5.04; in the experiment with SHANK1, Q9Y566 (setting [1]), “below the threshold”; in the experiment with TX1BP3, O14907 (setting [1]), 4.13.
Regarding FVHPILQSAV [PRKCA, P17252], the pKd in the experiment with APBA1_2, Q02410 (setting [2]) is 3.69; with APBA2_2, Q99767 (setting [2]) it was “below the threshold”; with CARD11, Q9BXL7 (setting [2]), “below the threshold”; in the experiment with DFNB31_2, Q9P202 (setting [2]), “below the threshold”; with DLG4_2, P78352 (setting [2]), 4.53; with FRMPD1, Q5SYB0 (setting [2]), “below the threshold”. The negative logarithm of the Kd (pKd) entry in the experiment with FRMPD2_1, Q68DX3 (setting [2]) was “below the threshold”; with IL16_1, Q14005 (setting [2]), 4.33; with Inadl_3, Q8NI35 (setting [2]) it was “below the threshold”; with LAP2, Q96RT1 (setting [2]), 4.13; with LIMK2, P53671 (setting [2]) it was “below the threshold”; with LNX1_3, Q8TBB1 (setting [2]), “below the threshold”. The pKd result in the experiment with LNX2_3, Q8N448 (setting [2]) was “below the threshold”; with MPDZ_10, O75970 (setting [2]), “below the threshold”; with MPP6, Q9NZW5 (setting [2]), “below the threshold”; in the experiment with MPP7, Q5T2T1 (setting [2]), “below the threshold”; in the experiment with NHERF3_3, Q5T2W1 (setting [2]) it was “below the threshold”; with NHERF3_4, Q5T2W1 (setting [2]), “below the threshold”. The negative logarithm of the Kd (pKd) result with NHERF4_2, Q86UT5 (setting [2]) was “below the threshold”; with NHERF4_4, Q86UT5 (setting [2]) it was “below the threshold”; in the experiment with PDZD2_2, O15018 (setting [2]), 5.1; with SHANK1, Q9Y566 (setting [2]), 4.34; in the experiment with TX1BP3, O14907 (setting [2]), 5.09.
TIVSWPGTFL [LNX1, Q8TBB1]: the pKd with APBA1_2, Q02410 (setting [3]) was 4.33; in the experiment with APBA2_2, Q99767 (setting [3]), “below the threshold”; with CARD11, Q9BXL7 (setting [3]), “below the threshold”; in the experiment with DFNB31_2, Q9P202 (setting [3]) it was “below the threshold”; with DLG4_2, P78352 (setting [3]), “below the threshold”; in the experiment with FRMPD1, Q5SYB0 (setting [3]) it was “below the threshold”. In addition, the negative-log Kd (pKd) entry with FRMPD2_1, Q68DX3 (setting [3]) is “below the threshold”; with IL16_1, Q14005 (setting [3]) it was “below the threshold”; in the experiment with Inadl_3, Q8NI35 (setting [3]), 3.62; with LAP2, Q96RT1 (setting [3]), “below the threshold”; with LIMK2, P53671 (setting [3]), “below the threshold”; with LNX1_3, Q8TBB1 (setting [3]), “below the threshold”. Also, the pKd entry is “below the threshold” with LNX2_3, Q8N448 (setting [3]); 3.6 in the experiment with MPDZ_10, O75970 (setting [3]); “below the threshold” with MPP6, Q9NZW5 (setting [3]); “below the threshold” with MPP7, Q5T2T1 (setting [3]); “below the threshold” in the experiment with NHERF3_3, Q5T2W1 (setting [3]); “below the threshold” in the experiment with NHERF3_4, Q5T2W1 (setting [3]). In addition, the pKd result with NHERF4_2, Q86UT5 (setting [3]) is “below the threshold”; in the experiment with NHERF4_4, Q86UT5 (setting [3]), “below the threshold”; in the experiment with PDZD2_2, O15018 (setting [3]), 4.03; in the experiment with SHANK1, Q9Y566 (setting [3]) it was 4.24; with TX1BP3, O14907 (setting [3]) it was 4.39.
With SRRPRTETQV [HPV31-E6, P17386], the negative logarithm of the Kd (pKd) entry with APBA1_2, Q02410 (setting [1]) is “below the threshold”; with APBA2_2, Q99767 (setting [1]), “below the threshold”; with CARD11, Q9BXL7 (setting [1]), “below the threshold”; with DFNB31_2, Q9P202 (setting [1]), “below the threshold”; in the experiment with DLG4_2, P78352 (setting [1]) it was 5.36; with FRMPD1, Q5SYB0 (setting [1]) it was “below the threshold”. Also, the pKd result in the experiment with FRMPD2_1, Q68DX3 (setting [1]) was “below the threshold”; with IL16_1, Q14005 (setting [1]), “below the threshold”; with Inadl_3, Q8NI35 (setting [1]), “below the threshold”; in the experiment with LAP2, Q96RT1 (setting [1]), 3.9; with LIMK2, P53671 (setting [1]) it was “below the threshold”; with LNX1_3, Q8TBB1 (setting [1]), “below the threshold”. Further, the negative-log Kd (pKd) result with LNX2_3, Q8N448 (setting [1]) is on record as “below the threshold”; with MPDZ_10, O75970 (setting [1]), “below the threshold”; with MPP6, Q9NZW5 (setting [1]), “below the threshold”; with MPP7, Q5T2T1 (setting [1]), “below the threshold”; with NHERF3_3, Q5T2W1 (setting [1]) it was “below the threshold”; with NHERF3_4, Q5T2W1 (setting [1]), “below the threshold”. Further, the pKd entry in the experiment with NHERF4_2, Q86UT5 (setting [1]) is “below the threshold”; in the experiment with NHERF4_4, Q86UT5 (setting [1]) it was “below the threshold”; with PDZD2_2, O15018 (setting [1]) it was 3.7; with SHANK1, Q9Y566 (setting [1]), “below the threshold”; with TX1BP3, O14907 (setting [1]) it was 4.61.
